Two molecules from paper PMC9308819 (Nature Communications, 2022) can be followed below.

Positions count from the first letter of the chain named.

Experiment [1] addresses T1, Rep15 D158A (human, UniProt Q6BDI9 1-236, N101D | D158A).
T1 construct: Limits probably as full-length wild type; source: E. coli BL21 Codon-Plus(DE3)-RIL, purified
T1 sequence: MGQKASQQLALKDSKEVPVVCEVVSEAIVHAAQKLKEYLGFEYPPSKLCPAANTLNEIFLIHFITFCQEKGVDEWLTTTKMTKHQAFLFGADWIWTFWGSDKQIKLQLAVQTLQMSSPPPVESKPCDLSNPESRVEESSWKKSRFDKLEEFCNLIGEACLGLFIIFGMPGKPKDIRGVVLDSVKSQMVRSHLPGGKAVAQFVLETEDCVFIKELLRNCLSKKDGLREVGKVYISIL
Nature of the experiment: ITC; 500/600 µM GppNHp/GTP Rab titrated into 50/60 µM Rep15; 20 mM Hepes 8.0, 50 mM NaCl, 1 mM MgCl2, 1 mM TCEP; one-site-binding model. The settings on record: both partners purified. In general terms: Isothermal titration calorimetry measures the heat released or taken up as one component is titrated into another.

Experiment [2] concerns the target T2, Rep15 L88A (human, UniProt Q6BDI9 1-236, N101D | L88A).
T2 construct: Limits probably as full-length wild type; source: E. coli BL21 Codon-Plus(DE3)-RIL, purified
T2 sequence: T1 sequence with L88A, A158D
The description is as above. The conditions noted are these: both partners purified.

Another experiment has as its target T3, Rep15 H84A (human, UniProt Q6BDI9 1-236, N101D | H84A).
T3 construct: Limits probably as full-length wild type; source: E. coli BL21 Codon-Plus(DE3)-RIL, purified
T3 sequence: T1 sequence with H84A, A158D
The experiment is described as above. The settings on record: both partners purified.

Experiment [3] deals with T4, Rep15 Q85A (human, UniProt Q6BDI9 1-236, N101D | Q85A).
T4 construct: Limits probably as full-length wild type; source: E. coli BL21 Codon-Plus(DE3)-RIL, purified
T4 sequence: T1 sequence with Q85A, A158D
The experiment is described as above. The conditions noted are these: both partners purified.

Experiment [4] deals with T5, Rep15 W140A (human, UniProt Q6BDI9 1-236, N101D | W140A).
T5 construct: source: E. coli BL21 Codon-Plus(DE3)-RIL, purified
T5 sequence: T1 sequence with W140A, A158D
The experiment is described as above. The settings on record: both partners purified.

In a further experiment the target is T6, Rep15 V135A (human, UniProt Q6BDI9 1-236, N101D | V135A).
T6 construct: source: E. coli BL21 Codon-Plus(DE3)-RIL, purified
T6 sequence: T1 sequence with V135A, A158D
The experiment is described as above. The settings on record: both partners purified.

The target of experiment [5] is T7, Rep15, full length (natural N101D variant) (human, UniProt Q6BDI9 1-236, N101D).
T7 construct: also called full-length Rep15; Rab15 effector protein
T7 sequence (looked up): T1 sequence with A158D
Nature of the experiment: stopped-flow fluorescence intensity; association; 0.5 µM mant-GppNHp Rab3A mixed with increasing Rep15 (2–14 µM); 25 °C; 20 mM Hepes 8.0, 50 mM NaCl, 1 mM MgCl2, 2 mM DTE; koff from the intercept, KD as koff/kon. The settings on record: both partners purified.

The target in experiment [6] is T8, Rep15 W140A (human, UniProt Q6BDI9 1-236, N101D | W140A).
T8 sequence: T1 sequence with W140A, A158D
Description: ITC.

For experiment [7], the target named is T9, Rep15 D158A (human, UniProt Q6BDI9 1-236, N101D | D158A).
T9 sequence: T1 sequence
Nature of the experiment: ITC.

Experiment [8] addresses T10, Rep15 L88A (human, UniProt Q6BDI9 1-236, N101D | L88A).
T10 sequence: T1 sequence with L88A, A158D
Description: ITC.

Experiment [9] has as its target T11, Rep15 Q85A (human, UniProt Q6BDI9 1-236, N101D | Q85A).
T11 sequence: T1 sequence with Q85A, A158D
Nature of the experiment: ITC.

Another experiment deals with T12, Rab3B (Homo sapiens (Human), UniProt P20337).
T12 chain: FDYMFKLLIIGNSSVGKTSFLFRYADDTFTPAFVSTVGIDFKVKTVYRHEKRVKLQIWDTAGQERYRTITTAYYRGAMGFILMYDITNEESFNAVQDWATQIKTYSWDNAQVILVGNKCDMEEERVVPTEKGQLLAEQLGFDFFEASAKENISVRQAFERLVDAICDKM
Description: ITC.

The target in a further experiment is T13, Rab3A (Homo sapiens (Human), UniProt P20336).
T13 chain: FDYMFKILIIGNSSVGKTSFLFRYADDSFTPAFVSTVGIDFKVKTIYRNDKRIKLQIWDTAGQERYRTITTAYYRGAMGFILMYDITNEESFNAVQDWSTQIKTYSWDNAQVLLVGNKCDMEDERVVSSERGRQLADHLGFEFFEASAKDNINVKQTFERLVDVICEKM
Nature of the experiment: ITC.

The target in another experiment is T14, Rab3D (Homo sapiens (Human), UniProt O95716).
T14 chain: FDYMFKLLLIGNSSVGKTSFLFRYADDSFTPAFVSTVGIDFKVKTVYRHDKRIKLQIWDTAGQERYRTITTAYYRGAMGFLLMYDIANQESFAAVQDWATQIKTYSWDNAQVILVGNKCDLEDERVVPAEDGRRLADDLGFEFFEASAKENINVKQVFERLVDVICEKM
Description: ITC.

Another experiment addresses T15, Rab27A (Homo sapiens (Human), UniProt P51159).
T15 chain: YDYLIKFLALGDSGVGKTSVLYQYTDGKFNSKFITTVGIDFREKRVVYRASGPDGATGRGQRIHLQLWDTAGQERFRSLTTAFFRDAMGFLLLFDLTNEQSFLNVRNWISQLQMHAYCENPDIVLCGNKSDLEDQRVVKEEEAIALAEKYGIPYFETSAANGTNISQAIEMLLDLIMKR
Nature of the experiment: ITC.

In general, Kd refers to a measure of binding affinity in units of concentration. The koff is the rate constant with which the complex falls apart. Higher therefore signals a short-lived complex. The kon is the second-order rate constant of association.

B1: Rab3A, purified, nucleotide-loaded (natural protein, human, UniProt P20336 1-220, looked up)
chain: MASATDSRYGQKESSDQNFDYMFKILIIGNSSVGKTSFLFRYADDSFTPAFVSTVGIDFKVKTIYRNDKRIKLQIWDTAGQERYRTITTAYYRGAMGFILMYDITNEESFNAVQDWSTQIKTYSWDNAQVLLVGNKCDMEDERVVSSERGRQLADHLGFEFFEASAKDNINVKQTFERLVDVICEKMSESLDTADPAVTGAKQGPQLSDQQVPPHQDCAC
notes: Rab3A, human; Loaded with GppNHp (aSEC, ITC) or mant-GppNHp (stopped flow); also called Rab3A_(GppNHp); Rab3A_(mantGppNHp); source: E. coli BL21 Codon-Plus (DE3)-RIL, purified (Ni Sepharose, TEV cleavage, gel filtration)
B1: the “fold reduction in affinity against wild-type Rep15” value in the experiment with Rep15 D158A [1] was 12 fold; with Rep15 L88A [2], 20 fold; with Rep15 Q85A [3] it was greater than 30 fold. The binding result with Rep15 H84A, with Rep15 W140A [4] and in the experiment with Rep15 V135A was “binds” throughout. In addition, the Kd in experiment [5] is 440 to 530 nM; in the experiment with Rep15 W140A [6] it was 400 nM; with Rep15 D158A [7], 5590 nM; with Rep15 L88A [8], 9700 nM; with Rep15 Q85A [9], 18500 nM. The koff in [5] was found to be 4.29 s⁻¹. The molecule further returned a kon in experiment [5] of 9.72e+06 M⁻¹ s⁻¹.

B2: Rep15 (protein)
chain: VPVVCEVVSEAIVHAAQKLKEYLGFEYPPSKLCPAANTLNEIFLIHFITFCQEKGVDEWLTTTKMTKHQAFLFGADWIWTFWGSNKQIKLQLAVQTLQMSSPPPVESKPCDLSNPESRVEESSWKKSRFDKLEEFCNLIGEDCLGLFIIFGMPGKPKDIRGVVLDSVKSQMVRSHLPGGKAVAQFVLETEDCVFIKELLRNCLSKKDGLREVGKVYISIL
On to B2, for which the Kd in the experiment with Rab3B worked out at 2160 nM; with Rab3A it was 480 nM; with Rab3D, 790 nM; with Rab27A it was 86200 nM.
